# Experiments:
# APE1 NΔ33 = APE1 NΔ33 (UniProt P27695 34-318, del1-33); assay: southwestern blot; switchSENSE: MES pH 5.5 (APE1) or 6.5 (iMab); UV-crosslinking: 50 mM Tris-acetate pH 5.5, 50 mM KCl, 1 mM DTT, 0.8% glycerol, 0.4 mM EDTA, 4°C; NMR: 50 mM NaCl, 10 mM MES pH 5.5, 1 mM DTT, 25°C; SMADNE: 25 mM MES pH 5.5, 150 mM NaCl, 0.1 mg/ml BSA, 1 mM DTT, 1 mM Trolox; details: protein: recombinant; tags: GST (Factor Xa cleavable, pGEX-3X) or His/GFP (pTAC-MAT); label: 5' IRDye800 (SWB, UV-crosslinking); i-motif, intramolecular
# Sequence of APE1 NΔ33 (P27695 34-318, stated change not applied): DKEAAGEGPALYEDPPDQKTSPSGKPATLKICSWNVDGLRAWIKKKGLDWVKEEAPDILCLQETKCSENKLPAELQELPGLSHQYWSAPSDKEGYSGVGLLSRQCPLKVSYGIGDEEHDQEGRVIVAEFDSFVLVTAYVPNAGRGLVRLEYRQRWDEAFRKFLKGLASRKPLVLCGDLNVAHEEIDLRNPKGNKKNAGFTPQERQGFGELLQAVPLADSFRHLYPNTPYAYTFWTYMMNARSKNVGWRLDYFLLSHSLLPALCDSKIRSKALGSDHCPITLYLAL
# APE1 WT = APE1 WT (UniProt P27695 1-318); assay: as above; details: protein: recombinant; tags: GST (Factor Xa cleavable, pGEX-3X) or His/GFP (pTAC-MAT); label: 5' IRDye800 (SWB, UV-crosslinking); i-motif, intramolecular
# Sequence of APE1 WT (P27695 whole entry): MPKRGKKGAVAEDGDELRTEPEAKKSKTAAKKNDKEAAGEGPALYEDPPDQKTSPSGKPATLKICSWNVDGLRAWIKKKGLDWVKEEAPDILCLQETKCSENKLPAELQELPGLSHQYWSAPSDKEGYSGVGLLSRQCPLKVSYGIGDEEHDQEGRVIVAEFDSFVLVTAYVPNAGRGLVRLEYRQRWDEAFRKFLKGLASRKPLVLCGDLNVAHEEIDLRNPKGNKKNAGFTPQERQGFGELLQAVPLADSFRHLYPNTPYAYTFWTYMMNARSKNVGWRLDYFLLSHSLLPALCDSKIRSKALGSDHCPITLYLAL
binder,measurement,setting,value
TAACCCTAACCCTAACCCTAACCCTAA (structured_DNA) [C-NAT],binding result,APE1 NΔ33,binds
same,binding result,APE1 WT,binds

# — article PMC13343191, “APE1 binds and processes abasic sites present in i-motif DNA and cooperates with PCBP1 in maintenance of telomeric stability”
